Columns and labels:
[1] = biological target: histone H3 1–15 K9me3 peptide (UniProt P68431); assay: fluorescence polarisation; fluorescence-labelled peptide constant at 40 nM, SUV39H1 (42–100 or 44–106) titrated from low to high micromolar; 20 mM Tris-HCl pH 8.5 or 7.5, 150 mM NaCl, 1 mM DTT, 0.01% Tween-X-100; 10 µL in 384-well plates; fit to a hyperbolic function
[2] = biological target: histone H3 1–15 K9me2 peptide (UniProt P68431); assay: as above

Kd [1]: 20 µM
Kd [2]: 29 µM
Substance: human SUV39H1 chromodomain (aa 42–100), complete chromodomain (from UniProt O43463 42-100) (domain or fragment)

Source: article PMC3532415
